Assay results reported in US9878137B2, “Bioactive agent delivery devices and methods of making and using the same” (The Regents of the University of California, priority 2012, dated 2018).

Experiment: In vitro drug permeation studies across caco-2 monolayer on Transwell inserts
Assay type: in vitro ADME, Human
Details: PEGDMA 15% Texas red-BSA, 30% FITC-BSA, 45% DNP-BSA reservoirs of same device; FIG. 6
Protocol: In vitro drug permeation studies. The drug loaded microdevices were released within 2 min from the wafers using 8 M potassium hydroxide (KOH) solution that was preheated to 40° C. The released microdevices being less dense than water was ultracentrifuged (30 kDa Amicon ultra centrifugal filters) and washed with PBS twice for release and permeation studies. Human colorectal adenocarcinoma epithelial cells (caco-2 ATCC) were grown to confluency (transepithelial electrical resistance plateau at 900-1000Ω) on 50% collagen-ethanol (Type 1, Becton Dickinson, Franklin Lakes, N.J.) treated 24-well Transwell® inserts. The caco-2 cells were maintained in Modified Eagle's Media (MEM) with 20% fetal bovine serum (Invitrogen), 2 mM L-glutamine, 1.5 g/L sodium bicarbonate, 2.5 g/L glucose, 10 mM HEPES buffer, 1.0 mM sodium pyruvate, and 1 mg/mL penicillin/streptomycin for 5 days or more prior to seeding. […] Discrete time (20 min) samples were taken from both the upper and lower chamber of the Transwell® for the different drug loaded systems and observed for fluorescence using a Packard Fluorocount Microplate Fluorometer (Meriden, Conn.).
To measure the drug elution kinetics of the various microdevices, release of the different fluorophore tagged BSAs were monitored, in vitro, from hydrogel laden microdevices. […]

For “FITC-BSA: fluorescently labeled bovine serum albumin, model fluorophore-drug”, which “relative release rate at different crosslinking ratio” value is on record?
Its value is “released faster than DNP-BSA”.

Which “relative release rate at different crosslinking ratio” value does the source give for “Texas red-BSA: fluorescently labeled bovine serum albumin, model fluorophore-drug” here?
Its value is “released faster than FITC-BSA”.
